Sequences and labels used below:
T1: IL-2Rα, β, and γ chains on preactivated human CD3 T-cells (human, UniProt P01589 22-272; P14784 27-551; P31785 23-369)
T1 sequence (looked up) 1: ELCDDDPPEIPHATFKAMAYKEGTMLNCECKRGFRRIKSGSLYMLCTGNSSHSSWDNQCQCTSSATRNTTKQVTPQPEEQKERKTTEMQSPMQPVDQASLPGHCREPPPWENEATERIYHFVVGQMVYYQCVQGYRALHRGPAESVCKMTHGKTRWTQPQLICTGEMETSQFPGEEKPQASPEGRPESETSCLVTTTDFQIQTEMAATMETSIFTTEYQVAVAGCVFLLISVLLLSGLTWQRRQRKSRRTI
T1 sequence (looked up) 2: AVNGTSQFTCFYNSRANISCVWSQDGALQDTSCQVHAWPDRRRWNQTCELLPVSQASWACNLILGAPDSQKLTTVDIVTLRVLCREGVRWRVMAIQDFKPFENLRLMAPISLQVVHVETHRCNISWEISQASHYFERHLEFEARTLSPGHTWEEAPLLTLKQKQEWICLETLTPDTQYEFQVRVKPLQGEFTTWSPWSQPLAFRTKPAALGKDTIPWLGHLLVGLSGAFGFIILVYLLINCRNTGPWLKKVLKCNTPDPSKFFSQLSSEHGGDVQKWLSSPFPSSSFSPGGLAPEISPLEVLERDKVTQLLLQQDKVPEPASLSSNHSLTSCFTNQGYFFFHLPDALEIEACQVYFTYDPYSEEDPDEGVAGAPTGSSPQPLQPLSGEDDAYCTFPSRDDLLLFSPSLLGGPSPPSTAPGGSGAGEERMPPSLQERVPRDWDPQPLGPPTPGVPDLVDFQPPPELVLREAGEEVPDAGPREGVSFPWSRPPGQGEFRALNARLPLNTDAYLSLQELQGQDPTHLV
T1 sequence (looked up) 3: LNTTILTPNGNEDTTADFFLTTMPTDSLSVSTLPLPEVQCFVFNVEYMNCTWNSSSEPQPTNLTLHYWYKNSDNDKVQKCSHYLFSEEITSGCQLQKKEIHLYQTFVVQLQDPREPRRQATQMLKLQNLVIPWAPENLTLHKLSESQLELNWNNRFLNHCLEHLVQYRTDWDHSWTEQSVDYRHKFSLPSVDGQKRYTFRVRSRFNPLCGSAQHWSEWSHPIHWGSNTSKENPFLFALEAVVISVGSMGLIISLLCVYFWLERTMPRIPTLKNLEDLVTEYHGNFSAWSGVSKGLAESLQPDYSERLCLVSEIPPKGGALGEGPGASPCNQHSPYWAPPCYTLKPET

T2: IL-2Rα-Fc fusion protein (human, UniProt P01589 22-240)
T2 construct: also called human IL-2Rα (CD25); CD25; not shown: Fc part and any linker are not described; captured on an anti-human IgG Fc sensor
T2 sequence: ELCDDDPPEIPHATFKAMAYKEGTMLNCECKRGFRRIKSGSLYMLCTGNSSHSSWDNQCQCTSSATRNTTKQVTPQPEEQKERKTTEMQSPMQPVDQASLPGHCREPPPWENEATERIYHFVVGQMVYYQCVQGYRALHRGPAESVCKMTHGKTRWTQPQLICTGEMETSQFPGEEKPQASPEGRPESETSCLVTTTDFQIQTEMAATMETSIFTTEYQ

T3: human CD122-Fc (AbroBio) (human, UniProt P14784 27-239)
T3 construct: also called IL-2Rβ; not shown: Fc part and any linker of the bought protein are not described; captured on an anti-human Fc sensor
T3 sequence: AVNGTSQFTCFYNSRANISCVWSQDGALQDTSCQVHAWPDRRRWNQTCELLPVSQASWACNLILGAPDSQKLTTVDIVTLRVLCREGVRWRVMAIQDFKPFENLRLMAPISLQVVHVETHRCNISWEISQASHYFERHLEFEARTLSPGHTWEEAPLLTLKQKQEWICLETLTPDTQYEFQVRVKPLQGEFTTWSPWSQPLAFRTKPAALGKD

B1: hIL-2-anti-HSA A37 (ligand)
chain: APTSSSTKKTQLQLEHLLLDLQMILNGINNYENPKLTRMLTAKFYMPKKATELKHLQCLEEELKPLEEVLNLAQSKNFHLRPRDLISNINVIVLELKGSETTFMCEYADETATIVEFLNRWITFSQSIISTLTGSGGSGGSGGSGEVQLVESGGGLVQPGGSLRLSCAASGSTWSINTLAWYRQAPGKQRDLVARISSGGSTYYADSVKGRFTISRDNSKNTLYLQMNSLRAEDTAVYYCYAQSTWYPPSWGQGTLVTVSS
notes: fused to anti-HSA VHH; also called IL2 mutein (K32E, F42A, C125S)
B2: hIL-2-anti-HSA A56 (ligand)
chain: APTSSSTKKTQLQLEHLLLDLQMILNGIQSMEIDATKFYMPKKATELKHLQCLEEELKPLEEVLNLAQSKNFHLRPRDLISNINVIVLELKGSETTFMCEYADETATIVEFLNRWITFSQSIISTLTGSGGSGGSGGSGEVQLVESGGGLVQPGGSLRLSCAASGSTWSINTLAWYRQAPGKQRDLVARISSGGSTYYADSVKGRFTISRDNSKNTLYLQMNSLRAEDTAVYYCYAQSTWYPPSWGQGTLVTVSS
notes: fused to anti-HSA VHH; also called IL-2-IL-15 chimera 3
B3: hIL-2-anti-HSA A55 (ligand)
chain: APTSSSTKKTQLQLEHLLLDLQMILNGIQSMEIDATTFKFYMPKKATELKHLQCLEEELKPLEEVLNLAQSKNFHLRPRDLISNINVIVLELKGSETTFMCEYADETATIVEFLNRWITFSQSIISTLTGSGGSGGSGGSGEVQLVESGGGLVQPGGSLRLSCAASGSTWSINTLAWYRQAPGKQRDLVARISSGGSTYYADSVKGRFTISRDNSKNTLYLQMNSLRAEDTAVYYCYAQSTWYPPSWGQGTLVTVSS
notes: fused to anti-HSA VHH; also called IL-2-IL-15 chimera 2
B4: hIL-2-anti-HSA A54 (ligand)
chain: APTSSSTKKTQLQLEHLLLDLQMILNGINNYENPKLTDATLYMPKKATELKHLQCLEEELKPLEEVLNLAQSKNFHLRPRDLISNINVIVLELKGSETTFMCEYADETATIVEFLNRWITFSQSIISTLTGSGGSGGSGGSGEVQLVESGGGLVQPGGSLRLSCAASGSTWSINTLAWYRQAPGKQRDLVARISSGGSTYYADSVKGRFTISRDNSKNTLYLQMNSLRAEDTAVYYCYAQSTWYPPSWGQGTLVTVSS
notes: fused to anti-HSA VHH; also called IL-2-IL-15 chimera 1
B5: hIL-2-anti-HSA A49 (ligand)
chain: B1 chain with A42C, V69C
notes: fused to anti-HSA VHH; also called hIL-2 mutein (K32E, F42C, V69C, C125S); IL-2 with an additional disulfide bond
B6: hIL-2-anti-HSA A2 (ligand)
chain: B1 chain with E32K, R38N, L40T, A42F
modifications: glycosylated IL-2 (site and glycan not stated for the tested protein)
notes: fused to anti-HSA VHH; also called hIL-2 mutein (R38N, L40T, C125S); glycosylated IL-2
B7: hIL-2-anti-HSA A53 (ligand)
chain: B1 chain with E32K, A42C, V69C, K76E
notes: fused to anti-HSA VHH; also called hIL-2 mutein (F42C, V69C, K76E, C125S)
B8: hIL-2-anti-HSA A52 (ligand)
chain: B1 chain with E32K, A42C, V69C
notes: fused to anti-HSA VHH; also called hIL-2 mutein (F42C, V69C, C125S)
B9: hIL-2-anti-HSA A40 (ligand)
chain: B1 chain with R38G
notes: fused to anti-HSA VHH; also called IL2 mutein (K32E, R38G, F42A, C125S)
B10: hIL-2-anti-HSA A48 (ligand)
chain: B1 chain with R38C, A42F, L72C
notes: fused to anti-HSA VHH; also called hIL-2 mutein (K32E, R38C, L72C, C125S)
B11: hIL-2-anti-HSA A39 (ligand)
chain: B1 chain with R38E
notes: fused to anti-HSA VHH; also called IL2 mutein (K32E, R38E, F42A, C125S)
B12: hIL-2-anti-HSA A42 (ligand)
chain: B1 chain with R38E, A42G
notes: fused to anti-HSA VHH; also called IL2 mutein (K32E, R38E, F42G, C125S)
B13: hIL-2-anti-HSA A45 (ligand)
chain: B1 chain with R38E, A42K
notes: fused to anti-HSA VHH; also called IL2 mutein (K32E, R38E, F42K, C125S)
B14: hIL-2-anti-HSA A44 (ligand)
chain: B1 chain with R38A, A42K
notes: fused to anti-HSA VHH; also called IL2 mutein (K32E, R38A, F42K, C125S)
B15: hIL-2-anti-HSA A46 (ligand)
chain: B1 chain with R38G, A42K
notes: fused to anti-HSA VHH; also called IL2 mutein (K32E, R38G, F42K, C125S)
B16: hIL-2-anti-HSA A50 (ligand)
chain: B1 chain with A42F, Y45C, E62C
notes: fused to anti-HSA VHH; also called hIL-2 mutein (K32E, Y45C, E62C, C125S)
B17: hIL-2-anti-HSA A47 (ligand)
chain: B1 chain with K35C, A42F, L72C
notes: fused to anti-HSA VHH; also called hIL-2 mutein (K32E, K35C, L72C, C125S)
B18: hIL-2-anti-HSA A36 (ligand)
chain: B1 chain with R38A, A42F
notes: fused to anti-HSA VHH; also called IL2 mutein (K32E, R38A, C125S)

Substitutions are numbered along the chain they refer to. Names and notes keep the numbering of the source. A value given as a limit tells only on which side of the number the result lay.

In one experiment the target is T1, IL-2Rα, β, and γ chains on preactivated …. The experiment can be described thus: cell-based or functional assay.
As for B1, the “EC50 of STAT5 phosphorylation (phospho-STAT5 Tyr694 HTRF)” value was found to be 0.92 nM.

In another experiment the target is T2, IL-2Rα-Fc fusion protein. In words: BLI (Octet RED96), IL-2Rα-Fc on AHC biosensor. On the procedure:
(§1) OCTET® RED96 was used to characterize the interactions of a wild-type hIL-2 and hIL-2 muteins with a human IL-2Rα (CD25). Briefly, an IL-2Rα-Fc fusion protein was loaded onto an anti-human IgG Fc capture (AHC) biosensor. The biosensor was then dipped into a solution containing a wild-type hIL-2 (WT IL-2) or an IL-2 mutein at various concentrations. Primary experimental data was analyzed with global fitting to determine a binding affinity (Kd).
Background: Biolayer interferometry detects binding as a change in optical thickness at a sensor tip.
On to B2, for which the binding result was “no binding”.
For B3, the binding result is on record as “no binding”.
The same measure, in the same setting: for B4 the value was “no binding”.
Turning to B1, the binding result is listed as “no binding”.
As to B5, the binding result is “no binding”.
In the case of B6, the binding result was “no binding”.
As for B7, the binding result is given as “no binding”.
With B8, the binding result is given as “no binding”.
In the case of B9, the binding result is “no binding”.
In the case of B10, the binding result is recorded as “no binding”.
With B11, the binding result is “no binding”.
Regarding B12, the binding result is listed as “no binding”.
As for B13, the binding result is “no binding”.
With B14, the binding result was “no binding”.
B15: the binding result was “no binding”.
As for B16, the binding result was “no binding”.

A further experiment addresses T2, IL-2Rα-Fc fusion protein. In words: BLI (Octet RED96), IL-2Rα-Fc on AHC biosensor, global fit. The procedure:
as §1
As a reminder, the Kd is the constant that tells how readily two partners part at equilibrium. The low end stands for a tighter complex, the high end for a looser complex. On to B17, for which the Kd was greater than 15 nM.
On the same count and under the same terms, under B18 stands 50 nM.

Another experiment deals with T3, human CD122-Fc (AbroBio). In words: BLI (Octet RED96), CD122-Fc on AHC sensor, 400 nM hIL-2 polypeptide. On the procedure: OCTET® RED96 was used to characterize the interactions of a human CD122-Fc (AbroBio) with a wild-type hIL-2 and hIL-2 muteins. Briefly, an anti-human Fc sensor (AHC) loaded with the human CD122 was dip into 400 nM of an hIL-2 polypeptide. The binding signaling of fusion protein A1 was normalized to 1.
With B5, the “CD122 Binding Response (A1 normalized to 1)” value turned out to be 1.04.
On the same count and under the same terms, under B6 stands 0.68.
